Experimental data: the nanobody polyreactivity screen of Harvey et al. (2022)

Experiment: yeast display, Sf9 membrane polyspecificity reagent, FACS + sequencing; frameworks hold sequencing errors
Procedure, shortened: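 In a synthetic yeast display library (Saccharomyces cerevisiae BJ5465), nanobody expression was induced with galactose for 36–48 hours. FACS gates were set low and high (top ~1%) using anti-HA fluorescence for expression and streptavidin fluorescence for binding of the Sf9 membrane reagent. Each polyreactivity label is drawn from the gate of origin.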

| Sequence | polyreactivity (PSR sort gate) |
| --- | --- |
| QVQLVESGGGLVQAGGSLRLSCAASGGTFQGNAMGWYRQAPGKEREFVATITRGGGSTYYADSVKGRFTISRDNAKNTVYLQMNSLKPEDTAVYYCNAKPSYYQRYNYWGQGTQVTVSS | high polyreactivity |
| QVQLVESGGGLVQAGGSLRLSCAASGGTFQQNAMGWSRQAPGKERELVAAISWSDGSTYYADSVKGRFTISRDYATNTVYLQMNSLTPEDTAVYYCAADFTYYDSPYRDYNYESWGQGTQVTVSS | low polyreactivity |
| QVQLVESGGGLVQAGGSLRLSCAASGGTFQSNGMGWYIQAPGKERELVATITGSGGDTSYAGSVKGRFTISRDNAKNTVYLQMNSLKPEDTAVYYCAAADADRKYDYWGQGTQVTVSS | low polyreactivity |
| QVQLVESGGGLVQAGGSLRLSCAASGGTFRLYAMGWYRQAPGKERELVAAISGRGGSTYYADSVKGRFTISRDNAKNTVYLQMNSLKPEDTAVYYCARYRRGKMDYWGQGTQVTVSS | high polyreactivity |
| QVQLVESGGGLVQAGGSLRLSCAASGGTFRLYTMGWYRQAPGKERELVAGISSSSGSTYYADSVKGRFTISRDNAKNTVYLQMNILKPEDTAVYYCAAYWPRSRYDYWGQGTQVTVSS | high polyreactivity |
| QVQLVESGGGLVQAGGSLRLSCAASGGTFRNYAMGWYRQAPGKERELVAAITTGTITNYADSVKGRFTISRDNAKNTVYLQMNSLKPEDTAVYYCNAGAFYSDPYDYWGQGTQLTVSS | low polyreactivity |
| QVQLVESGGGLVQAGGSLRLSCAASGGTFRNYPMGWYRQAPGKERELVAAITTGTITNYADSVKGRFTISRDNAKNTVYLQMNSLKPEDTAVYYCNAGAFYSDPYDYWGQGTQVTVSS | low polyreactivity |
| QVQLVESGGGLVQAGGSLRLSCAASGGTFRPYAIGWYRQAPGKERELVATIRSSGGRTYYADSVKGRFTISRDNAKNTVYLQMNSLKPEDTAVYYCAKRAQTYYGYVYWGQGTQVTVSS | high polyreactivity |
| QVQLVESGGGLVQAGGSLRLSCAASGGTFRRYTMGWYTQAPGKVRELVAAITTSGGSTYYADSVKGRFTISRDNAKNTVYLQMNSLKPEDTAVYYCAATRRYSGDYWGQGTQVTVSS | high polyreactivity |
| QVQLVESGGGLVQAGGSLRLSCAASGGTFRVYAMGWYRQAPVKERELVDAITWRGGRTYYADSVKGRFTISRDNAKNTDYFQMNSLKPEDPAVYYCAADRYGDLYDYWGQGTQVTVSS | high polyreactivity |
| QVQLVESGGGLVQAGGSLRLSCAASGGTFSFYTMGWYRQGPGKERELVAAIDSTGRTNYADSVKGRFTISRENAKNTVYLLMNSLKPDDTAVYYCSAGPPRADYDYWGQGTQVTVSS | low polyreactivity |
| QVQLVESGGGLVQAGGSLRLSCAASGGTFSYYAMGWYRQAPGKERELVAAISGNGDTTYYADSVKGRFTSSRDNAKNTVYLQMNSLKPEATAVYYCNVFVSAGEEDEYWGQGTQVTVSS | low polyreactivity |
| QVQLVESGGGLVQAGGSLRLSCAASGGTFTAYAMGWYIQAPGKERELVAAISASGDSTYYADSVKGRFTISRDIAKNTVYLQMNSLKPEDTAVYYCNADWYRTGRRGSDYWGQGTQVTVSS | low polyreactivity |
| QVQLVESGGGLVQAGGSLRLSCAASGGTFTRYTMGWYRQAHGKESELVAAISSSGGSTYYADSVKGRFTISRDNAKNTVYLQMNSLKPEDTAVYYCAAFKASSKQYPYDYWGQGTQVTVSS | high polyreactivity |
| QVQLVESGGGLVQAGGSLRLSCAASGGTFTSYAMGWYRQAPGKERELVAAISWSGGSTYYADSVKGRFTISRDNAKNTVYLQMKSLKPEDTAVYYCAAVFYRYNAVRYDYWGQGTQVTVSS | high polyreactivity |
| QVQLVESGGGLVQAGGSLRLSCAASGGTFTVNAMGLYRQAPGKERELVAAITWDGGTTYYADSVKGRFTISRDNAKNTVYLQMNSLKPEDSAVYYCAAEVDYSAFDYWGQGTQVTVSS | low polyreactivity |
| QVQLVESGGGLVQAGGSLRLSCAASGGTFVFYAMGWYIQAPGKERELVAAISSAGRTYYADAVKGRFTISRDNAKTTVYLQMNSLKPEETAVYYCAAVSSQYDGRYYYWGQGTQVTVSS | high polyreactivity |
| QVQLVESGGGLVQAGGSLRLSCAASGGTFVPNAMGWYRQAPGKERELVAAITWSGARTYYADSVKGRFTISRDNAKNTVYLQMNSLKPEDTAVYYCAAVYNYYIVYEYYYWGQGTQVTVSS | high polyreactivity |
| QVQLVESGGGLVQAGGSLRLSCAASGGTFWIYAMGWYRKAPGKERELVAGITTSGATTYYADSVKGRFTISRDNAKNTVYLQMNSLKPEDTAVYYCAADEYYRYEYWGQGTQVTVSS | low polyreactivity |
| QVQLVESGGGLVQAGGSLRLSCAASGGTFWYNAMGWYRQAPGKERELVANIRRSGDSTYYADSVKARFTISRDNAKNTVYLQMNSLKPEDTAVYYCAVSYTTYYHRYYYWGQGTQVTVSS | high polyreactivity |
| QVQLVESGGGLVQAGGSLRLSCAASGGTFYGNAMGWYRQAPGKERELVAGITDDSSTYYADSVKGRFTISRDNAKNTVYLQMNSLKPEDTAVYYCAKDLSWYYLPEVYYWGQGTQVTVSS | low polyreactivity |
| QVQLVESGGGLVQAGGSLRLSCAASGGTFYGYAAMGWYRQAPGKERELVAAISRSGGRTYYADSVKGRFTISRDNAKNTVYLQMNSLKPEDTAVYYCAARRAYSRPPRDYWGQCTQVTVSS | high polyreactivity |

| Sequence | polyreactivity (PSR sort gate) |
| --- | --- |
| QVQLVESGGGLVQAGGSLRLSCAASGGTFYRYAMGWYRQAPGKERELVAAITSGSSTYYADSVKGRFTISRDNAKNTVYLQMNSLKPEDTAVYYCAAARYSRLSRTRPGKYGYWGQGTQVTVSS | low polyreactivity |
| QVQLVESGGGLVQAGGSLRLSCAASGGTFYVNAMGLYRQAPGKERELVAGIRESGASTYYADSVKGRFTISRDNAKNTVYFQMNSLQPEDTAVYYCAVDGPYPAASQSEVGYDYWGQGTQVTVSS | low polyreactivity |
| QVQLVESGGGLVQAGGSLRLSCAASGGTFYYYAMGWSRQAPGKERELVAAISWSGVSTSYADSVKGRFTISRDNANNTVYLQMNSLKPEDTAVYYCAAGPFYYTGYEGVYWGQGTQVTVSS | high polyreactivity |
| QVQLVESGGGLVQAGGSLRLSCAASGGTFYYYAMGWYRQAPGKEREFVAAITWTGGRTYYADSVKGRFTISRDNAKNTVYLQMNSLKPEDTAVYYCAASDRYGGRDYWGQGTQVTVSS | high polyreactivity |
| QVQLVESGGGLVQAGGSLRLSCAASGGTIDRYAMGWYRQAPGKERELVAAITKSGDRTYYADSVKGRFTISRDNAKNTVYLQMNSLKPEDTAVYYCAAAYSGLRRQNGFNYWGQGTQVTVSS | high polyreactivity |
| QVQLVESGGGLVQAGGSLRLSCAASGGTIGYNAMGWYRQAPGKERELVAAISWSGGTTYYADSVKGRFTISRDNAKNTVYLQMNSLKPEDTAVYYCNVYSRGRDDWGQGTQVTVSS | high polyreactivity |
| QVQLVESGGGLVQAGGSLRLSCAASGGTIVPNAMGWYRQAPGTERELVATLTSSDTTNYADSVKGRFTISRDNAKNTVYLQMNSLKPEDTAVYYSAASFKLGYWDYYYWGQGTQVTVSS | low polyreactivity |
| QVQLVESGGGLVQAGGSLRLSCAASGGTIYGYAAMGWYRQAPGKERELVAAISRSGGRTYYADSVKGRFTISRDNAKNTVYLQMNSRKPEDTAVYYCAARRAYSRPPRDYWGQCTQVTVSS | high polyreactivity |
| QVQLVESGGGLVQAGGSLRLSCAASGGTLDYNAMGWYRQAPGKERELVAGITSGGGTYYADSVKGRFTISRDNAKNTVYLQMNSVKPEDTAVYYCAARPWRSRYYGGLGRRFDYWGQGTQVTVSS | high polyreactivity |
| QVQLVESGGGLVQAGGSLRLSCAASGGTLQGNAMGWYRQAPGKERELVAAISSRGGRTYYADSVKGRFTISRDNAKNTVYLQMNSLKPEDTAVYYCAAVQNGDSTLLRTKGGYWGQGTQVTVSS | high polyreactivity |
| QVQLVESGGGLVQAGGSLRLSCAASGGTLQGNAMGWYRQAPGKERELVAAISSRGGRTYYADSVKGRFTISRDNANNTVYLQMNSLKPEDTAVYYCAAVQKGDSTLLRTKGGYWGQGTQVTVSS | high polyreactivity |
| QVQLVESGGGLVQAGGSLRLSCAASGGTLRRYAMGWYRQAPGKERELVAGITSGGSTDYADSVKGRFTISRDNAKNTVYLQMNSLKPEDTAVYYCAALVYRPTYGYIFDYWGQGTQVTVSS | high polyreactivity |
| QVQLVESGGGLVQAGGSLRLSCAASGGTLRYYVMGWYRQAPGKDRELVAAISWAGDSTYYADSVKGRFTISRDNAKNTVYLQMNSLKPEDTAVYYCAATYYLTYYSGQANHGYDYWGQGTQVTVSS | low polyreactivity |
| QVQLVESGGGLVQAGGSLRLSCAASGGTLYYNAMGWYRQAPGKERELVAAISGRGGRTYYADSVKGRFTISRDNAKNTVYLQMNSLKPEDTAVYYFARVTNDHYDYWGQGTQVTVSS | high polyreactivity |
| QVQLVESGGGLVQAGGSLRLSCAASGGTSYAYTMGWYRQAPGKERELVAAISGSTGSTYYADSVKGRFTISRDNAKNTVYLQMNSLKPEDTAVYYCALLVGHNYWGQGTQVTVSS | low polyreactivity |
| QVQLVESGGGLVQAGGSLRLSCAASGGWYRQAPGKERELVAAISWRDSSTYYADSVKGRFTISRDNAKNTVYLQMNSLKPEDTAVYYCAVRAYPWPEYYYWGQGTQVTVSS | low polyreactivity |
| QVQLVESGGGLVQAGGSLRLSCAASGHIFANYAMGWYRQAPGKERELVAAIRWSASRTYYADSVKGRFTISRDYAKNTVFLQLNSLKPEDTAVYYCAATIYTFWAYYYDYWGQGTQVTVSS | high polyreactivity |
| QVQLVESGGGLVQAGGSLRLSCAASGHIFFYYTMGWYRQAPGKERELVAGITIGGSTNYADSVKGRFTISRDNAKNTVYLEMNSLKPEDTAVYYCNVVKYVFFYSYWEYYYWGQGTQVTVSS | low polyreactivity |
| QVQLVESGGGLVQAGGSLRLSCAASGHIFFYYTMGWYSPAPGKERELVAGITIGGSTNYADSVKGRFTISRDNAKNTVYLQMNSLKPEDTAVYYCNVVKYVYIYSYWEYYYWGQGTQVNVSS | low polyreactivity |
| QVQLVESGGGLVQAGGSLRLSCAASGHIFGGNAMGWYRQAPGKEMELVATISSGGSTHYADSVKGRFTISRDNAKNTVYLQMHSLKPEDTAVYYCAARRSYRATAYKYDYWGQGTHVTVSS | low polyreactivity |
| QVQLVESGGGLVQAGGSLRLSCAASGHIFSRYAMGWFRQAPGKERDLVATITNRGGSTYYADSVKGRFTISRDNAKNSVYLQMNSLKPEDTAVYYCARRTKSYVSHPLDYWGQGTQVTVSS | high polyreactivity |
